Data published in patent publication US20140315825A1 (GENEMEDICINE, published 2014).

Target: T1, soluble Wnt decoy receptor sLRP6E1E2 (FLAG-tagged E1 and E2 extracellular domains of LRP6) (Homo sapiens (Human), UniProt O75581 20-651)
T1 construct: Expressed in the assay cells from the adenoviral vector dE1-k35/sLRP6E1E2 and not added as purified protein; also called soluble LRP6 receptor; decoy Wnt receptor; not shown: FLAG tag
T1 sequence: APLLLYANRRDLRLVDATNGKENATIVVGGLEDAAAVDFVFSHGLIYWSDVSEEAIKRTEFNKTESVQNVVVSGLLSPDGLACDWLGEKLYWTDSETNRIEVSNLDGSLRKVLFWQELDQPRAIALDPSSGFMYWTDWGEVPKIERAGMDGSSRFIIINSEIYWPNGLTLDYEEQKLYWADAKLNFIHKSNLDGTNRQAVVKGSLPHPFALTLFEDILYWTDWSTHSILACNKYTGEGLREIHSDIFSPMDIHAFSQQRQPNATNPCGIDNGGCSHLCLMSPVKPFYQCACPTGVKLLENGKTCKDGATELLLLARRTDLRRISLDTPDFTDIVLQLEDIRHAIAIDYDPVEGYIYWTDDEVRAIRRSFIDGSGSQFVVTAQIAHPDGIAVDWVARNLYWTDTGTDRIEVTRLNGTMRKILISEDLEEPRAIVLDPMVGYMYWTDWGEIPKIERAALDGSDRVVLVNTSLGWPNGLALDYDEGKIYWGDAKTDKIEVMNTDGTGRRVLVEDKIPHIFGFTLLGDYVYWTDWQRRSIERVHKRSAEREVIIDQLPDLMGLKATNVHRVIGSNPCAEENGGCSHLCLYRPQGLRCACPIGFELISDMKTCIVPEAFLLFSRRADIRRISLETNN
Test: immunoprecipitation of lysates of transduced H322 and H460 cells with anti-Wnt3a or anti-LRP6, then western blot
Procedure: FIG. 1 represents characterization of the decoy Wnt receptor sLRP6E1E2. FIG. 1a is schematic representation of the genomic structure of Ad vectors used. […] Cell culture supernatants were assessed with FLAG- or LRP6-specific Ab. (d) H322 and H460 cells were transduced with dE1-k35/LacZ or dE1-k35/sLRP6E1E2 (50 MOI) for 48 hr. Cell lysates were immunoprecipitated with antisera against Wnt3a (IP: Wnt3a) or LRP6 (IP: LRP6) followed by western blot (WB) analysis with the same antibodies.
Next, binding of sLRP6E1E2 to Wnt3a was assessed in cells transduced with dE1-k35/LacZ or dE1-k35/sLRP6E1E2. Cell lysates were immunoprecipitated with anti-Wnt3a or anti-LRP6 antibodies and analyzed by western blot.

binding result: binds
B1: Wnt3a, endogenous in human non-small cell lung cancer cell lines H322 and H460 (ligand, UniProt P56704 19-352, looked up)
chain: SYPIWWSLAVGPQYSSLGSQPILCASIPGLVPKQLRFCRNYVEIMPSVAEGIKIGIQECQHQFRGRRWNCTTVHDSLAIFGPVLDKATRESAFVHAIASAGVAFAVTRSCAEGTAAICGCSSRHQGSPGKGWKWGGCSEDIEFGGMVSREFADARENRPDARSAMNRHNNEAGRQAIASHMHLKCKCHGLSGSCEVKTCWWSQPDFRAIGDFLKDKYDSASEMVVEKHRESRGWVETLRPRYTYFKVPTERDLVYYEASPNFCEPNPETGSFGTRDRTCNVSSHGIDGCDLLCCGRGHNARAERRREKCRCVFHWCCYVSCQECTRVYDVHTCK
notes: Present in cell lysates in the immunoprecipitation; also called Wnt 3a protein
